Our source for the inhibition of infection of Huh7.5 cells with SA13/JFH1C3405G-A3696G virus (FFU count) values is US20110021611A1.

The experiment has as its target CD81 on Huh7.5 cells (human) (UniProt P60033). The experiment is described as follows: cell-based or functional assay.
Chain of UniProt P60033 (P60033 whole entry): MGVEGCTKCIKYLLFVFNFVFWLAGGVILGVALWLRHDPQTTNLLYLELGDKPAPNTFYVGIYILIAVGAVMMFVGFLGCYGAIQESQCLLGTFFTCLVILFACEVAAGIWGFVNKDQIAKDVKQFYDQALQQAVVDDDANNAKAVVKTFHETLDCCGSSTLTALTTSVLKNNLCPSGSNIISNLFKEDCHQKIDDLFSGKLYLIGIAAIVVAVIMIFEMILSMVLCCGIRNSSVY

In turn, “anti-CD81 (JS-81, BD Biosciences, Pharmingen) (antibody)” had an inhibition of infection of Huh7.5 cells with SA13/JFH1C3405G-A3696G virus (FFU count) of 90 % inhibition.
